{"source": "the supplement of paper PMC10065799", "about": "“High-throughput profiling of sequence recognition by tyrosine kinases and SH2 domains using bacterial peptide display” (eLife, 2023);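 note: 11-residue human phosphosite peptides and single-mutation variants displayed on the E. coli surface, counted by deep sequencing, each peptide's frequency after selection divided by its frequency in the unselected input library; frequency after pTyr selection over input frequency; kinase dosed for 20-30% of maximal phosphorylation in three min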"}
{"target": "EPHB2 (UniProt P29323)", "sequence (P29323 whole entry, looked up)": "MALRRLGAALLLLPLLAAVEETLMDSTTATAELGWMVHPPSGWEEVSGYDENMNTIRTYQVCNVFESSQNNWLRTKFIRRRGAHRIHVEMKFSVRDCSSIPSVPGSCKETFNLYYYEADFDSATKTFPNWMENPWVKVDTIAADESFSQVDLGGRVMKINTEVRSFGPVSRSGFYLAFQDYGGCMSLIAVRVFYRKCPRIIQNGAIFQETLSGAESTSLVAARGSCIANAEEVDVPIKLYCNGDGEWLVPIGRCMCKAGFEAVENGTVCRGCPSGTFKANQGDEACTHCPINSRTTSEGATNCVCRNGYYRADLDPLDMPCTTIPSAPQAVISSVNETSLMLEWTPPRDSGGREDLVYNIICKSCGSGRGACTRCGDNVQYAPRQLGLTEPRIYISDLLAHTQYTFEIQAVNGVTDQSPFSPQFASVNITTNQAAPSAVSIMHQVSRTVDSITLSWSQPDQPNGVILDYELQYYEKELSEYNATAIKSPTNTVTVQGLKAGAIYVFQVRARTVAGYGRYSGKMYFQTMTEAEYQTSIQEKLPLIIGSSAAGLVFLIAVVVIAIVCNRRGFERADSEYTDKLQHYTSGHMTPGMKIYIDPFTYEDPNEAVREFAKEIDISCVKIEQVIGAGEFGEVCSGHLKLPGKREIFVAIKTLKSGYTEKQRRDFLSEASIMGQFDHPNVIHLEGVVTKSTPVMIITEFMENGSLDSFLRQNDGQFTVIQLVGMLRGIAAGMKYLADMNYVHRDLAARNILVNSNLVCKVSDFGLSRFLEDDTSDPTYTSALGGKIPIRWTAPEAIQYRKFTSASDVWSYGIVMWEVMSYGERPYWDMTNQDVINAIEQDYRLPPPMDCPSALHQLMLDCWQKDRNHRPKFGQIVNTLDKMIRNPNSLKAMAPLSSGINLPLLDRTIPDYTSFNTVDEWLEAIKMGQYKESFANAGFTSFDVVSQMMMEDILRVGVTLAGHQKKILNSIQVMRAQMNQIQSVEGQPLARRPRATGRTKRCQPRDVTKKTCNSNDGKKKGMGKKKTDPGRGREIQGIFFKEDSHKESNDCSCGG", "assay": "phosphorylation enrichment, bacterial display (enrichment ratio); higher = better substrate or ligand; peptides without Tyr show the background"}
{"sequence": "AHAGEYGAEAL [HBA1_Y25]", "phosphorylation enrichment": 0.394}
{"sequence": "ENELTYFCFKK [CD59_Y86_C89Y_YF]", "phosphorylation enrichment": 0.667}
{"sequence": "QNTGYYYDLYG [PTPN11_Y62_D61Y]", "phosphorylation enrichment": 17.9}
{"sequence": "SGPRRYTIAAL [TTR_Y125]", "phosphorylation enrichment": 0.53}
{"sequence": "CSEEMYCLMLQ [RET_Y981_R982C]", "phosphorylation enrichment": 0.794}
{"sequence": "MSLDQYSPSFP [FGFR1_Y776_P772S]", "phosphorylation enrichment": 0.465}
{"sequence": "QQTYTYDSGIH [JUP_Y22]", "phosphorylation enrichment": 1.5}
{"sequence": "KNKKDYFDMFE [SLC26A3_Y526_YF]", "phosphorylation enrichment": 0.585}
{"sequence": "KNEVLYDGENH [ARFGEF1_Y314]", "phosphorylation enrichment": 0.525}
{"sequence": "WVYNHYRWFIW [BRCA2_Y2624_I2627F]", "phosphorylation enrichment": 0.466}
{"sequence": "EQWRAYLEGTC [HLA-C_Y183_L180W]", "phosphorylation enrichment": 0.588}
{"sequence": "DSRRDYVSQFE [APOA1_Y53_G50R]", "phosphorylation enrichment": 0.447}
{"sequence": "YIILIYAMKKK [SLCO1B1_Y645]", "phosphorylation enrichment": 0.348}
{"sequence": "VDSTEYEVASQ [SLC7A7_Y7]", "phosphorylation enrichment": 0.646}
{"sequence": "NVPILYTASQA [CTNNA1_Y222]", "phosphorylation enrichment": 0.449}
{"sequence": "LARDMHDKEYY [MET_Y1230_Y1230H]", "phosphorylation enrichment": 0.507}
{"sequence": "CTTIHYNFMCI [TP53_Y234_N239I_YF]", "phosphorylation enrichment": 0.673}
{"sequence": "FVHDNYVIQRT [CPS1_Y1450_R1453Q]", "phosphorylation enrichment": 1.07}
{"sequence": "EFTPLYPMLFG [SCLY_Y280]", "phosphorylation enrichment": 0.695}
{"sequence": "SKQGKYLNWDA [ATM_Y54]", "phosphorylation enrichment": 0.507}
{"sequence": "GKFHMYVAVWT [F13A1_Y161_R159H]", "phosphorylation enrichment": 0.479}
{"sequence": "NKKHHYRELPV [ERN2_Y860]", "phosphorylation enrichment": 0.773}
{"sequence": "VGGRIYTDDGL [PKLR_Y218_I219T]", "phosphorylation enrichment": 0.592}
{"sequence": "GGKFSYLKVGH [GRM3_Y480_YF]", "phosphorylation enrichment": 0.368}
{"sequence": "RIVEIYTRRLQ [GCH1_Y175_S176T]", "phosphorylation enrichment": 0.462}
{"sequence": "FKEDPYLVVNP [MCM6_Y810_E806K_YF]", "phosphorylation enrichment": 0.617}
{"sequence": "SPDMLYQYLKQ [RPAP3_Y567]", "phosphorylation enrichment": 1.78}
{"sequence": "LTSKPYAFTAR [NDUFS1_Y236]", "phosphorylation enrichment": 1.08}
{"sequence": "KPGLKYVTYGN [GALNTL5_Y404]", "phosphorylation enrichment": 0.624}
{"sequence": "GESKDYALHVG [SVIL_Y185]", "phosphorylation enrichment": 0.721}
{"sequence": "NPQKPYFIRLF [WAS_Y83_S82P_YF]", "phosphorylation enrichment": 0.579}
{"sequence": "GFILMYDITNE [RAB3C_Y110]", "phosphorylation enrichment": 1.6}
{"sequence": "KKCTTYIDCDL [ASPA_Y64_R63T]", "phosphorylation enrichment": 0.474}
{"target": "Jak2 (UniProt O60674)", "sequence (O60674 whole entry, looked up)": "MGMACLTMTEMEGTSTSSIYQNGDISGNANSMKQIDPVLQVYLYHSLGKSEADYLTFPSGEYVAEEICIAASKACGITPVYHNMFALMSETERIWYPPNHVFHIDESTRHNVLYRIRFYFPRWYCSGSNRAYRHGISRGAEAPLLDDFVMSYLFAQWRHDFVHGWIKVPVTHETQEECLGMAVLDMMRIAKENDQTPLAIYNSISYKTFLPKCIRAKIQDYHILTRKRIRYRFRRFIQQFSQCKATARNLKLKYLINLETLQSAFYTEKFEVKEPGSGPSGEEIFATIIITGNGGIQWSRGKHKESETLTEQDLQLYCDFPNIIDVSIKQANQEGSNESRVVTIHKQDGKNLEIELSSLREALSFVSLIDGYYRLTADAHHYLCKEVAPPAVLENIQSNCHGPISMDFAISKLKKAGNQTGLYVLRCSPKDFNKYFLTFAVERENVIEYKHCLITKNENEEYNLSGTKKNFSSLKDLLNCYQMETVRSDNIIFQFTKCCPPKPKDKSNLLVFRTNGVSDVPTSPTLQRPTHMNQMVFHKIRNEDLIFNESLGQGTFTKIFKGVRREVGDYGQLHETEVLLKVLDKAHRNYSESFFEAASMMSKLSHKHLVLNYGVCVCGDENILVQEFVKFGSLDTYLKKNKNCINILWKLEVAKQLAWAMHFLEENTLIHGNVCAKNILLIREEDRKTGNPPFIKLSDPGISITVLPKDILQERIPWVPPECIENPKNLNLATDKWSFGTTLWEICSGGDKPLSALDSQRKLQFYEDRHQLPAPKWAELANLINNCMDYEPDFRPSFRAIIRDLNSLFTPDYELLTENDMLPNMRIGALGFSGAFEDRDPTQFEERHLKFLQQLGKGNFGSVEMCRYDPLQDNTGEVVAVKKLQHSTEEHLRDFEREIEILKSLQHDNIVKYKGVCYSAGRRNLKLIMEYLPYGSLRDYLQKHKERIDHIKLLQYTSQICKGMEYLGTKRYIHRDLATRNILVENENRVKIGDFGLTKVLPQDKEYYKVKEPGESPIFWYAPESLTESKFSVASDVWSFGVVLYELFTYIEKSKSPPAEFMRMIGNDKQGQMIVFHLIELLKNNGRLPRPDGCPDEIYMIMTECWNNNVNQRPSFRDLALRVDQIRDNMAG", "assay": "phosphorylation enrichment, bacterial display (enrichment ratio); higher = better substrate or ligand; peptides without Tyr show the background"}
{"sequence": "AHAGEYGAEAL [HBA1_Y25]", "phosphorylation enrichment": 0.66}
{"sequence": "ENELTYFCFKK [CD59_Y86_C89Y_YF]", "phosphorylation enrichment": 2.43}
{"sequence": "QNTGYYYDLYG [PTPN11_Y62_D61Y]", "phosphorylation enrichment": 8.69}
{"sequence": "SGPRRYTIAAL [TTR_Y125]", "phosphorylation enrichment": 0.639}
{"sequence": "CSEEMYCLMLQ [RET_Y981_R982C]", "phosphorylation enrichment": 1.22}
{"sequence": "MSLDQYSPSFP [FGFR1_Y776_P772S]", "phosphorylation enrichment": 0.929}
{"sequence": "QQTYTYDSGIH [JUP_Y22]", "phosphorylation enrichment": 1.2}
{"sequence": "KNKKDYFDMFE [SLC26A3_Y526_YF]", "phosphorylation enrichment": 0.706}
{"sequence": "KNEVLYDGENH [ARFGEF1_Y314]", "phosphorylation enrichment": 0.763}
{"sequence": "WVYNHYRWFIW [BRCA2_Y2624_I2627F]", "phosphorylation enrichment": 1.15}
{"sequence": "EQWRAYLEGTC [HLA-C_Y183_L180W]", "phosphorylation enrichment": 1.17}
{"sequence": "DSRRDYVSQFE [APOA1_Y53_G50R]", "phosphorylation enrichment": 0.645}
{"sequence": "YIILIYAMKKK [SLCO1B1_Y645]", "phosphorylation enrichment": 0.451}
{"sequence": "VDSTEYEVASQ [SLC7A7_Y7]", "phosphorylation enrichment": 1.04}
{"sequence": "NVPILYTASQA [CTNNA1_Y222]", "phosphorylation enrichment": 0.688}
{"sequence": "LARDMHDKEYY [MET_Y1230_Y1230H]", "phosphorylation enrichment": 0.628}
{"sequence": "CTTIHYNFMCI [TP53_Y234_N239I_YF]", "phosphorylation enrichment": 0.969}
{"sequence": "FVHDNYVIQRT [CPS1_Y1450_R1453Q]", "phosphorylation enrichment": 0.7}
{"sequence": "EFTPLYPMLFG [SCLY_Y280]", "phosphorylation enrichment": 1.64}
{"sequence": "SKQGKYLNWDA [ATM_Y54]", "phosphorylation enrichment": 0.666}
{"sequence": "GKFHMYVAVWT [F13A1_Y161_R159H]", "phosphorylation enrichment": 1.06}
{"sequence": "NKKHHYRELPV [ERN2_Y860]", "phosphorylation enrichment": 2.67}
{"sequence": "VGGRIYTDDGL [PKLR_Y218_I219T]", "phosphorylation enrichment": 0.595}
{"sequence": "GGKFSYLKVGH [GRM3_Y480_YF]", "phosphorylation enrichment": 0.642}
{"sequence": "RIVEIYTRRLQ [GCH1_Y175_S176T]", "phosphorylation enrichment": 0.637}
{"sequence": "FKEDPYLVVNP [MCM6_Y810_E806K_YF]", "phosphorylation enrichment": 1.13}
{"sequence": "SPDMLYQYLKQ [RPAP3_Y567]", "phosphorylation enrichment": 0.727}
{"sequence": "LTSKPYAFTAR [NDUFS1_Y236]", "phosphorylation enrichment": 0.398}
{"sequence": "KPGLKYVTYGN [GALNTL5_Y404]", "phosphorylation enrichment": 0.498}
{"sequence": "GESKDYALHVG [SVIL_Y185]", "phosphorylation enrichment": 0.461}
{"sequence": "NPQKPYFIRLF [WAS_Y83_S82P_YF]", "phosphorylation enrichment": 0.878}
{"sequence": "GFILMYDITNE [RAB3C_Y110]", "phosphorylation enrichment": 1.38}
{"sequence": "KKCTTYIDCDL [ASPA_Y64_R63T]", "phosphorylation enrichment": 0.81}
